Measurements reported in PMC9482650, “Quantitative fragmentomics allow affinity mapping of interactomes” (Nature Communications, 2022).
One block for each binder: values may come before it.

How the values were obtained:
Experiment in all cases: holdup assay
Design in all cases: key: below the threshold = too weak to quantify, mostly under pKd 3.1 to 4
ARHGEF12, Q9NZN5-2 = target: ARHGEF12, Q9NZN5-2
DFNB31_1, Q9P202 = target: T1, DFNB31_1, Q9P202
T1 sequence (Q9P202 135-233, limits assumed, looked up): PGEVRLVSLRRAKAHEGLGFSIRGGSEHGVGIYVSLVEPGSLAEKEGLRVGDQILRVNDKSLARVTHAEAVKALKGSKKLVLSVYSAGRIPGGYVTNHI

DLG1_2, Q12959 = target: DLG1_2, Q12959
DLG4_1, P78352 = target: DLG4_1, P78352
GRIP1_3, Q9Y3R0 = target: T2, GRIP1_3, Q9Y3R0
T2 sequence (Q9Y3R0 247-346, limits assumed, looked up): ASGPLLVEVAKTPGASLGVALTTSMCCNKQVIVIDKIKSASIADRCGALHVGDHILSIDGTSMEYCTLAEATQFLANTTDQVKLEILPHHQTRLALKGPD

GRIP2_4, Q9C0E4 = target: GRIP2_4, Q9C0E4
HTRA4, P83105 = target: T3, HTRA4, P83105
T3 sequence (P83105 378-476, limits assumed, looked up): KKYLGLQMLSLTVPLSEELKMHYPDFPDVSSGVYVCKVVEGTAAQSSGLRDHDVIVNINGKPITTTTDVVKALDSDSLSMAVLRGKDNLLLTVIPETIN

IL16_1, Q14005 = target: IL16_1, Q14005
Inadl_2, Q8NI35 = target: Inadl_2, Q8NI35
Inadl_5, Q8NI35 = target: Inadl_5, Q8NI35
LAP2, Q96RT1 = target: LAP2, Q96RT1
LIN7A, O14910 = target: T4, LIN7A, O14910
T4 sequence (O14910 103-200, limits assumed, looked up): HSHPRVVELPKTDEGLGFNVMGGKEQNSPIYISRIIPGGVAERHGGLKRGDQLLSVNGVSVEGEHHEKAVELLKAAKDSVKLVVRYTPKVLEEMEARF

LRRC7, Q96NW7 = target: T5, LRRC7, Q96NW7
T5 sequence (Q96NW7 1440-1537, limits assumed, looked up): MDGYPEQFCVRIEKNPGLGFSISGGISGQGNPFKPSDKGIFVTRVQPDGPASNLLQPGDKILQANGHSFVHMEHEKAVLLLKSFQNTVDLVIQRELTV

MAGI1_2, Q96QZ7 = target: MAGI1_2, Q96QZ7
MAST2, Q6P0Q8 = target: MAST2, Q6P0Q8
MPP7, Q5T2T1 = target: T6, MPP7, Q5T2T1
T6 sequence (Q5T2T1 134-230, limits assumed, looked up): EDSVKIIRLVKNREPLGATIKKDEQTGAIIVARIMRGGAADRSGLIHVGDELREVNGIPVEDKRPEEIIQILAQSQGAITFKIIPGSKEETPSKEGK

NHERF3_1, Q5T2W1 = target: T7, NHERF3_1, Q5T2W1
T7 sequence (Q5T2W1 4-100, limits assumed, looked up): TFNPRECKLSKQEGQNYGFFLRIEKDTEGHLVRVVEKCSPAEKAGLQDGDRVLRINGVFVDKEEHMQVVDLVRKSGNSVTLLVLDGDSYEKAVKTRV

NHERF3_4, Q5T2W1 = target: T8, NHERF3_4, Q5T2W1
T8 sequence (Q5T2W1 373-468, limits assumed, looked up): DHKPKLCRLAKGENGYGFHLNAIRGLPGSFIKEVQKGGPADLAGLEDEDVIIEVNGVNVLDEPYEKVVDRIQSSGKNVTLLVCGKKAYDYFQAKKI

PARD3_3, Q8TEW0 = target: PARD3_3, Q8TEW0
PCLO, Q9Y6V0 = target: T9, PCLO, Q9Y6V0
T9 sequence (Q9Y6V0 4491-4600, limits assumed, looked up): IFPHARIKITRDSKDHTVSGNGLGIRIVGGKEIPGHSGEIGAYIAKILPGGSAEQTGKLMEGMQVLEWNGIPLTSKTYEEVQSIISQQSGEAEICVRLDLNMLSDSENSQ

PDZRN3_1, Q9UPQ7 = target: T10, PDZRN3_1, Q9UPQ7
T10 sequence (Q9UPQ7 244-349, limits assumed, looked up): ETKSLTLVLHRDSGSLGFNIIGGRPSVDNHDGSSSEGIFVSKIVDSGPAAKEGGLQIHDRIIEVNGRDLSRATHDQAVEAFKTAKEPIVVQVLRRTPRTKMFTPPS

PICK1, Q9NRD5 = target: PICK1, Q9NRD5
RADIL, Q96JH8 = target: T11, RADIL, Q96JH8
T11 sequence (Q96JH8 971-1071, limits assumed, looked up): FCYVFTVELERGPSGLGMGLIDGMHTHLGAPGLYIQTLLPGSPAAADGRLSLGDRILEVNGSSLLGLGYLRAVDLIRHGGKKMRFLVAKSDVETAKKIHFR

RHPN1, Q8TCX5 = target: T12, RHPN1, Q8TCX5
T12 sequence (Q8TCX5 508-602, limits assumed, looked up): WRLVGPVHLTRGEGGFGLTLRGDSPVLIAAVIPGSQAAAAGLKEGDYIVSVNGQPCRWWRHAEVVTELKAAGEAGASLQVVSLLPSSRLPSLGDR

[1] = plain residues with an end cap or a label only (N-terminal biotin on a linker: ahx)
[2] = plain residues with an end cap or a label only (N-terminal biotin on a linker: ttds)

Inadl_2, Q8NI35, sequence (Q8NI35 238-335): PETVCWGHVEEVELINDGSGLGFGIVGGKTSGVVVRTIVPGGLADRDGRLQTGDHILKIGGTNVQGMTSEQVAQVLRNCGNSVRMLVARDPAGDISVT
PARD3_3, Q8TEW0, sequence (Q8TEW0 582-685): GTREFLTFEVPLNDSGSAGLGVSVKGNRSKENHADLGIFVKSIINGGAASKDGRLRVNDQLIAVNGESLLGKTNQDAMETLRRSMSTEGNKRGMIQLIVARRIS
ARHGEF12, Q9NZN5-2, sequence (Q9NZN5 other isoform, or with tags, fused parts or gaps): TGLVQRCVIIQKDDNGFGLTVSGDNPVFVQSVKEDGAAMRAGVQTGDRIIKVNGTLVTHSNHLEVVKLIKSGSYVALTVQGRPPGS
PICK1, Q9NRD5, sequence (Q9NRD5 17-115): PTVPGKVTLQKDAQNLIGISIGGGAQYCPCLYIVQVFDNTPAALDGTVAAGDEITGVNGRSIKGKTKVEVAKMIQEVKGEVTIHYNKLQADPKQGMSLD
Inadl_5, Q8NI35, sequence (Q8NI35 673-780): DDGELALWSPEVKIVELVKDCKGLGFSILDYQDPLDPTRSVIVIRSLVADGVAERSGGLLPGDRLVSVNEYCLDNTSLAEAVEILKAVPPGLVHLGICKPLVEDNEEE
LAP2, Q96RT1, sequence (Q96RT1 other isoform, or with tags, fused parts or gaps): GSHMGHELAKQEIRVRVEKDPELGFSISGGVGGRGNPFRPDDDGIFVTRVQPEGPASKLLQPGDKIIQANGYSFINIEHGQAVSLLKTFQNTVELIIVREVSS
IL16_1, Q14005, sequence (Q14005 210-306): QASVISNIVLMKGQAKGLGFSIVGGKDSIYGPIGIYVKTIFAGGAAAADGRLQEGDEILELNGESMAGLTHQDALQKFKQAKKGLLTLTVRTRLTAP
GRIP2_4, Q9C0E4, sequence (Q9C0E4 446-548): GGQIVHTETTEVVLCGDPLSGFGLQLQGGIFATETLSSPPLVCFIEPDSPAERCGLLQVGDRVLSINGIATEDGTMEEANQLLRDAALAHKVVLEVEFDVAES
DLG1_2, Q12959, sequence (Q12959 314-412): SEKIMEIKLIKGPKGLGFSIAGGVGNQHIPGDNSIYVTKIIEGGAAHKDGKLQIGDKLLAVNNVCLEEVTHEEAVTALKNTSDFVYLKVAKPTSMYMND
MAGI1_2, Q96QZ7, sequence (Q96QZ7 456-580): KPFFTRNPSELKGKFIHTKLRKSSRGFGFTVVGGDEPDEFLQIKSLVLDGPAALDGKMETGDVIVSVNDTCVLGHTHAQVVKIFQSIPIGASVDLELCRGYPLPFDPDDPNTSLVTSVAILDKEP
MAST2, Q6P0Q8, sequence (Q6P0Q8 1099-1202): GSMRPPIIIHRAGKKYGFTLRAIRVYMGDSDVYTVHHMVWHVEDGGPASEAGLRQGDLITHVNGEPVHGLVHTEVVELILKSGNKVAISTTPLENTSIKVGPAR
DLG4_1, P78352, sequence (P78352 62-152): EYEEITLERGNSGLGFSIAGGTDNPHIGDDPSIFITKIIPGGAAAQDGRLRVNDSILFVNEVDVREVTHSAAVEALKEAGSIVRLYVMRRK

pKd (ARHGEF12, Q9NZN5-2; [1]): 3.71
pKd (DFNB31_1, Q9P202; [1]): below the threshold
pKd (DLG1_2, Q12959; [1]): 3.85
pKd (DLG4_1, P78352; [1]): 3.59
pKd (GRIP1_3, Q9Y3R0; [1]): below the threshold
pKd (GRIP2_4, Q9C0E4; [1]): below the threshold
pKd (HTRA4, P83105; [1]): below the threshold
pKd (IL16_1, Q14005; [1]): 4.17
pKd (Inadl_2, Q8NI35; [1]): below the threshold
pKd (Inadl_5, Q8NI35; [1]): below the threshold
pKd (LAP2, Q96RT1; [1]): 3.62
pKd (LIN7A, O14910; [1]): below the threshold
pKd (LRRC7, Q96NW7; [1]): below the threshold
pKd (MAGI1_2, Q96QZ7; [1]): below the threshold
pKd (MAST2, Q6P0Q8; [1]): 4.92
pKd (MPP7, Q5T2T1; [1]): below the threshold
pKd (NHERF3_1, Q5T2W1; [1]): below the threshold
pKd (NHERF3_4, Q5T2W1; [1]): below the threshold
pKd (PARD3_3, Q8TEW0; [1]): 3.91
pKd (PCLO, Q9Y6V0; [1]): below the threshold
pKd (PDZRN3_1, Q9UPQ7; [1]): below the threshold
pKd (PICK1, Q9NRD5; [1]): below the threshold
pKd (RADIL, Q96JH8; [1]): below the threshold
pKd (RHPN1, Q8TCX5; [1]): 4.23
B1: RAPGEF2, Q9Y4G8 (peptide)
chain: EDEDEQVSAV

pKd (ARHGEF12, Q9NZN5-2; [2]): 3.66
pKd (DFNB31_1, Q9P202; [2]): below the threshold
pKd (DLG1_2, Q12959; [2]): 3.99
pKd (DLG4_1, P78352; [2]): below the threshold
pKd (GRIP1_3, Q9Y3R0; [2]): below the threshold
pKd (GRIP2_4, Q9C0E4; [2]): below the threshold
pKd (HTRA4, P83105; [2]): below the threshold
pKd (IL16_1, Q14005; [2]): below the threshold
pKd (Inadl_2, Q8NI35; [2]): below the threshold
pKd (Inadl_5, Q8NI35; [2]): below the threshold
pKd (LAP2, Q96RT1; [2]): below the threshold
pKd (LIN7A, O14910; [2]): below the threshold
pKd (LRRC7, Q96NW7; [2]): below the threshold
pKd (MAGI1_2, Q96QZ7; [2]): below the threshold
pKd (MAST2, Q6P0Q8; [2]): 4.34
pKd (MPP7, Q5T2T1; [2]): below the threshold
pKd (NHERF3_1, Q5T2W1; [2]): below the threshold
pKd (NHERF3_4, Q5T2W1; [2]): below the threshold
pKd (PARD3_3, Q8TEW0; [2]): 3.54
pKd (PCLO, Q9Y6V0; [2]): below the threshold
pKd (PDZRN3_1, Q9UPQ7; [2]): below the threshold
pKd (PICK1, Q9NRD5; [2]): below the threshold
pKd (RADIL, Q96JH8; [2]): 3.54
pKd (RHPN1, Q8TCX5; [2]): below the threshold
B2: MAP2K2, P36507 (peptide)
chain: QPGTPTRTAV

pKd (ARHGEF12, Q9NZN5-2; [1]): below the threshold
pKd (DFNB31_1, Q9P202; [1]): below the threshold
pKd (DLG1_2, Q12959; [1]): below the threshold
pKd (DLG4_1, P78352; [1]): below the threshold
pKd (GRIP1_3, Q9Y3R0; [1]): below the threshold
pKd (GRIP2_4, Q9C0E4; [1]): below the threshold
pKd (HTRA4, P83105; [1]): below the threshold
pKd (IL16_1, Q14005; [1]): below the threshold
pKd (Inadl_2, Q8NI35; [1]): 4.55
pKd (Inadl_5, Q8NI35; [1]): 4.25
pKd (LAP2, Q96RT1; [1]): below the threshold
pKd (LIN7A, O14910; [1]): below the threshold
pKd (LRRC7, Q96NW7; [1]): below the threshold
pKd (MAGI1_2, Q96QZ7; [1]): below the threshold
pKd (MAST2, Q6P0Q8; [1]): below the threshold
pKd (MPP7, Q5T2T1; [1]): 4.29
pKd (NHERF3_1, Q5T2W1; [1]): 3.84
pKd (NHERF3_4, Q5T2W1; [1]): below the threshold
pKd (PARD3_3, Q8TEW0; [1]): 4.29
pKd (PCLO, Q9Y6V0; [1]): below the threshold
pKd (PDZRN3_1, Q9UPQ7; [1]): below the threshold
pKd (PICK1, Q9NRD5; [1]): below the threshold
pKd (RADIL, Q96JH8; [1]): 4.2
pKd (RHPN1, Q8TCX5; [1]): below the threshold
B3: NRXN1, Q9ULB1 (peptide)
chain: KKNKDKEYYV
